What all share (assay): purified protein
Substrate in data set [1]: O=C(O)C(=O)C[C@H](O)CO
In kind it is biochemical, Herbaspirillum huttiense. To be noted: 1.5 mM NAD+, 50 mM Tris-HCl pH 8.0, 30 °C.

Substrate in data set [2]: O=C(O)C(=O)C[C@@H](O)CO
In kind it is biochemical, Herbaspirillum huttiense. To be noted: 1.5 mM NAD+, 50 mM Tris-HCl pH 8.0, 30 °C.

Substrate in data set [3]: NC(=O)c1ccc[n+]([C@@H]2O[C@H](COP(=O)(O)OP(=O)(O)OC[C@H]3O[C@@H](n4cnc5c(N)ncnc54)[C@H](O)[C@@H]3O)[C@@H](O)[C@H]2O)c1
Type of data set: biochemical, Herbaspirillum huttiense. To be noted: 10 mM substrate, 50 mM Tris-HCl pH 8.0, 30 °C, varied: cofactor.

Substrate in data set [4]: O=C(O)[C@H]1C[C@@H](O)CN1
In kind it is biochemical, Herbaspirillum huttiense. To be noted: 1.5 mM NAD+, 50 mM Tris-HCl pH 8.0, 30 °C, substrate range 1-10 mM (Km extrapolated).

Substrate in data set [5]: O=C(O)C(=O)C[C@H](O)[C@H](O)CO
Type of data set: biochemical, Herbaspirillum huttiense. To be noted: 1.5 mM NAD+, 50 mM Tris-HCl pH 8.0, 30 °C.

Substrate in data set [6]: C[C@@H](O)CC(=O)O
Type of data set: biochemical, Herbaspirillum huttiense. To be noted: 1.5 mM NAD+, 50 mM Tris-HCl pH 8.0, 30 °C.

Substrate in data set [7]: C[C@H](O)[C@@H](O)CC(=O)C(=O)O
Type of data set: biochemical, Herbaspirillum huttiense. To be noted: 1.5 mM NAD+, 50 mM Tris-HCl pH 8.0, 30 °C.

Substrate in data set [8]: O=C(O)[C@@H]1C[C@@H](O)CN1
Type of data set: biochemical, Herbaspirillum huttiense. To be noted: 1.5 mM NAD+, 50 mM Tris-HCl pH 8.0, 30 °C.

Substrate in data set [9]: O=C(O)[C@@H]1C[C@H](O)CN1
In kind it is biochemical, Herbaspirillum huttiense. To be noted: 1.5 mM NAD+, 50 mM Tris-HCl pH 8.0, 30 °C.

Substrate in data set [10]: O=C(O)C(=O)C[C@H](O)[C@@H](O)CO
In kind it is biochemical, Herbaspirillum huttiense. To be noted: 1.5 mM NAD+, 50 mM Tris-HCl pH 8.0, 30 °C.

Substrate in data set [11]: NC(=O)c1ccc[n+]([C@@H]2O[C@H](COP(=O)(O)OP(=O)(O)OC[C@H]3O[C@@H](n4cnc5c(N)ncnc54)[C@H](OP(=O)(O)O)[C@@H]3O)[C@@H](O)[C@H]2O)c1
Type of data set: biochemical, Herbaspirillum huttiense. To be noted: 10 mM substrate, 50 mM Tris-HCl pH 8.0, 30 °C, varied: cofactor.

Substrate in data set [12]: C[C@@H](O)CC(=O)O
In kind it is biochemical, Homo sapiens. To be noted: 1.5 mM NAD+, 50 mM Tris-HCl pH 8.0, 30 °C, substrate range 1-10 mM (Km extrapolated).

Substrate in data set [13]: C[C@H](O)[C@@H](O)CC(=O)C(=O)O
Type of data set: biochemical, Homo sapiens. To be noted: 1.5 mM NAD+, 50 mM Tris-HCl pH 8.0, 30 °C.

Substrate in data set [14]: O=C(O)[C@@H]1C[C@H](O)CN1
Type of data set: biochemical, Homo sapiens. To be noted: 1.5 mM NAD+, 50 mM Tris-HCl pH 8.0, 30 °C.

B1: L-KDFDH (FucF; C785_RS13675) (Herbaspirillum huttiense subsp. putei IAM 15032) (protein)
chain: MSASTGRLAGKTVLITAAAQGIGRASTELFAREGARVIATDISKTHLEELASIAGVETHLLDVTDDDAIKALVAKVGTVDVLFNCAGYVAAGNILECDDKAWDFSFNLNAKAMFHTIRAVLPGMLAKKAGSIVNIASAASSVKGVANRFAYGASKAAVVGLTKSVAADFVSQGIRCNAICPGTIESPSLNQRISTQAKETGKSEDEVRAAFVARQPMGRIGKAEEVAALALYLASDESNFTTGSIHMIDGGWSN
notes: pQE-80L, N-terminal (His)6-tag, expressed in E. coli, Ni-NTA; homotetramer; EC 1.1.1.434
A word on the Km: it is the concentration of substrate that gives half-maximal velocity. In general, kcat refers to the number of substrate molecules converted per active site and unit of time at saturation. In general, kcat/Km refers to the second-order rate constant that governs catalysis at low substrate concentration. Turning to B1, the Michaelis constant (Km) in data set [1] was 2580 ± 240 µM; in data set [2], 5510 ± 660 µM; in [3], 30.2 ± 3 µM; in data set [4], 37800 ± 11500 µM; in data set [5], 6600 ± 550 µM; in data set [6], 1790 ± 570 µM. Further, the Km is 115 ± 15 µM in [7]; 2260 ± 270 µM in data set [8]; 4190 ± 350 µM in [9]; 808 ± 73 µM in data set [10]; 1770 ± 300 µM in [11]. Further, the kcat in [1] was found to be 27.5 ± 2.03 s⁻¹; in data set [2], 3.37 ± 0.183 s⁻¹; in [3], 29.2 ± 1.3 s⁻¹; in [5], 8.25 ± 0.35 s⁻¹; in data set [6] it was 0.00137 ± 0.000167 s⁻¹; in data set [7] it was 15 ± 0.317 s⁻¹. Also, the kcat in [8] came to 0.00165 ± 0.000105 s⁻¹; in data set [9], 0.742 ± 0.0233 s⁻¹; in data set [10], 19.8 ± 1.2 s⁻¹; in data set [11] it was 0.0678 ± 0.01 s⁻¹. In addition, the kcat/Km in [1] was determined as 10700 ± 267 M⁻¹ s⁻¹; in data set [2], 615 ± 36.7 M⁻¹ s⁻¹; in data set [3] it was 972000 ± 58700 M⁻¹ s⁻¹; in data set [5] it was 1250 ± 55 M⁻¹ s⁻¹; in data set [6], 0.795 ± 0.137 M⁻¹ s⁻¹; in [7], 132000 ± 14000 M⁻¹ s⁻¹. Moreover, the kcat/Km was found to be 0.737 ± 0.045 M⁻¹ s⁻¹ in data set [8], 178 ± 10 M⁻¹ s⁻¹ in data set [9], 24700 ± 750 M⁻¹ s⁻¹ in data set [10] and 38.5 ± 1 M⁻¹ s⁻¹ in data set [11].

B2: L-KDFDH (FucF; C785_RS13675) (Herbaspirillum huttiense subsp. putei IAM 15032; D41S/I42R) (protein)
chain: MSASTGRLAGKTVLITAAAQGIGRASTELFAREGARVIATSRSKTHLEELASIAGVETHLLDVTDDDAIKALVAKVGTVDVLFNCAGYVAAGNILECDDKAWDFSFNLNAKAMFHTIRAVLPGMLAKKAGSIVNIASAASSVKGVANRFAYGASKAAVVGLTKSVAADFVSQGIRCNAICPGTIESPSLNQRISTQAKETGKSEDEVRAAFVARQPMGRIGKAEEVAALALYLASDESNFTTGSIHMIDGGWSN
notes: as for B1
Consider B2, for which, in data set [11], the Km was 200 ± 4 µM, the kcat worked out at 3.6 ± 0.0667 s⁻¹ and the catalytic efficiency (kcat/Km) worked out at 18050 ± 83.3 M⁻¹ s⁻¹.

B3: L-KDFDH (FucF; C785_RS13675) (Herbaspirillum huttiense subsp. putei IAM 15032; W252M) (protein)
chain: MSASTGRLAGKTVLITAAAQGIGRASTELFAREGARVIATDISKTHLEELASIAGVETHLLDVTDDDAIKALVAKVGTVDVLFNCAGYVAAGNILECDDKAWDFSFNLNAKAMFHTIRAVLPGMLAKKAGSIVNIASAASSVKGVANRFAYGASKAAVVGLTKSVAADFVSQGIRCNAICPGTIESPSLNQRISTQAKETGKSEDEVRAAFVARQPMGRIGKAEEVAALALYLASDESNFTTGSIHMIDGGMSN
notes: as for B1
Regarding B3, in data set [7], the Km worked out at 219 ± 6 µM, the kcat is 6.62 ± 0.167 s⁻¹ and the kcat/Km turned out to be 30000 ± 83.3 M⁻¹ s⁻¹.

B4: BDH2 (Homo sapiens) (protein)
chain: MGRLDGKVIILTAAAQGIGQAAALAFAREGAKVIATDINESKLQELEKYPGIQTRVLDVTKKKQIDQFANEVERLDVLFNVAGFVHHGTVLDCEEKDWDFSMNLNVRSMYLMIKAFLPKMLAQKSGNIINMSSVASSVKGVVNRCVYSTTKAAVIGLTKSVAADFIQQGIRCNCVCPGTVDTPSLQERIQARGNPEEARNDFLKRQKTGRFATAEEIAMLCVYLASDESAYVTGNPVIIDGGWSL
notes: recombinant (His)6-tagged, expressed in E. coli, purified
In the case of B4, in data set [12], the Km was 18500 ± 2900 µM, the kcat is 0.0698 ± 0.00483 s⁻¹ and the kcat/Km is 3.8 ± 0.333 M⁻¹ s⁻¹. In addition, in data set [13], the Km worked out at 32.2 ± 3.3 µM, the turnover number (kcat) is 3.67 ± 0.183 s⁻¹ and the kcat/Km came out at 114000 ± 5830 M⁻¹ s⁻¹. In [14], the Km came out at 220 ± 61 µM, the kcat was 4.88 ± 0.5 s⁻¹ and the kcat/Km was 22800 ± 3670 M⁻¹ s⁻¹.

Values taken from PMC11199699.
